Assay [1] has as its target human α-glycoprotein (human) (UniProt P02763). As to the kind of experiment: calculated from ITC Ka; 1 µM antibiotic, 1.5×10^-5 M α-glycoprotein assumed.
Assay [2] has as its target N,N′-diacetyl-Lys-D-Ala-D-Ala. Kind of assay: ITC, tri-peptide injected into dalbavancin, 25 °C, apparent value in the presence of 34.2 µM HSA. On the technique in general: Isothermal titration calorimetry measures the heat released or taken up as one component is titrated into another.
In assay [3] the target is human α-glycoprotein (human) (UniProt P02763). As to the kind of experiment: calculated from ITC Ka; 250 µM antibiotic, 1.5×10^-5 M α-glycoprotein assumed.
The target of assay [4] is human serum albumin (human) (UniProt P02768). As to the kind of experiment: calculated from ITC Ka; 1 µM antibiotic, 6×10^-4 M human serum albumin assumed.
Assay [5] deals with N,N′-diacetyl-Lys-D-Ala-D-Ala. As to the kind of experiment: ITC, tri-peptide injected into dalbavancin, 10 °C, no HSA.
In assay [6] the target is human α-glycoprotein (human) (UniProt P02763). As to the kind of experiment: calculated from ITC Ka; 165 µM antibiotic, 1.5×10^-5 M α-glycoprotein assumed.
Assay [7] has as its target N,N′-diacetyl-Lys-D-Ala-D-Ala. Kind of assay: ITC, tri-peptide injected into dalbavancin, 25 °C, apparent value in the presence of 80.7 µM HSA.
Assay [8] deals with human serum albumin (human) (UniProt P02768). Kind of assay: calculated from ITC Ka; 100 µM antibiotic, 6×10^-4 M human serum albumin assumed.
Assay [9] deals with human α-glycoprotein (human) (UniProt P02763). As to the kind of experiment: calculated from ITC Ka; 500 µM antibiotic, 1.5×10^-5 M α-glycoprotein assumed.
Assay [10] addresses N,N′-diacetyl-Lys-D-Ala-D-Ala. Kind of assay: ITC, no HSA.
Assay [11] has as its target human serum albumin (human) (UniProt P02768). Kind of assay: calculated from ITC Ka; 250 µM antibiotic, 6×10^-4 M human serum albumin assumed.
For assay [12] the target is unchanged. Kind of assay: calculated from ITC Ka; 500 µM antibiotic, 6×10^-4 M human serum albumin assumed.
The target of assay [13] is human α-glycoprotein (human) (UniProt P02763). Kind of assay: calculated from ITC Ka; 100 µM antibiotic, 1.5×10^-5 M α-glycoprotein assumed.
In assay [14] the target is human serum albumin (human) (UniProt P02768). As to the kind of experiment: calculated from ITC Ka; 165 µM antibiotic, 6×10^-4 M human serum albumin assumed.
In assay [15] the target is human α-glycoprotein (human) (UniProt P02763). As to the kind of experiment: ITC, single-site model.
In assay [16] the target is bovine albumin (bovine) (UniProt P02769). Kind of assay: ITC, single-site model.
The target of assay [17] is rat albumin (rat) (UniProt P02770). As to the kind of experiment: ITC, single-site model.
Assay [18] has as its target dog albumin (dog) (UniProt P49822). Kind of assay: ITC, single-site model.
Assay [19] deals with human α-glycoprotein (human) (UniProt P02763). Kind of assay: calculated from ITC Ka; 10 µM antibiotic, 1.5×10^-5 M α-glycoprotein assumed.
Assay [20] addresses human serum albumin (human) (UniProt P02768). As to the kind of experiment: calculated from ITC Ka; 10 µM antibiotic, 6×10^-4 M human serum albumin assumed.
The target of assay [21] is N,N′-diacetyl-Lys-D-Ala-D-Ala. Kind of assay: ITC, tri-peptide injected into dalbavancin, 25 °C, apparent value in the presence of 13.6 µM HSA.

Where “and” joins values, the source holds several entries; their conditions need not be identical. Identical values can stand only once. Bounds are passed on as bounds.

Chain of human α-glycoprotein (human) (P02763 19-201): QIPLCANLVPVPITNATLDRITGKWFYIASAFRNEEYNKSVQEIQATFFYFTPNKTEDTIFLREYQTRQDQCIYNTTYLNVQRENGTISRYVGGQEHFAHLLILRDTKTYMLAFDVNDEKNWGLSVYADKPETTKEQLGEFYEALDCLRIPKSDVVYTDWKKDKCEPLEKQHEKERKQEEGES
Chain of rat albumin (rat) (P02770 25-608 limits assumed): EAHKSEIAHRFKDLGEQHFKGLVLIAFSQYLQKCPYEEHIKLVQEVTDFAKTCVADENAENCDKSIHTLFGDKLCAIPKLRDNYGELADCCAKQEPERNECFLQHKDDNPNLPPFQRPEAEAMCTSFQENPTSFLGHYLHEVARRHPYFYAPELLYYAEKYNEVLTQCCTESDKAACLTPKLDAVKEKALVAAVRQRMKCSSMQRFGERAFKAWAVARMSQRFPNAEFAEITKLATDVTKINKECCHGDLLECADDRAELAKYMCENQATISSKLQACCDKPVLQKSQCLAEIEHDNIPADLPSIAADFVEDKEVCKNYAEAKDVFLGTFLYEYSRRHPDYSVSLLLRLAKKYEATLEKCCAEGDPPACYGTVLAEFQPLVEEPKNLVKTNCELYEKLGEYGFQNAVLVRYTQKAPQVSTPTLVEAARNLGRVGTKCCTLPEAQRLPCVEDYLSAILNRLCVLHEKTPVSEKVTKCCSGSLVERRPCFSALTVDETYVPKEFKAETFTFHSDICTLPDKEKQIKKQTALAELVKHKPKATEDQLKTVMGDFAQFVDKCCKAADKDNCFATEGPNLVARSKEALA
Chain of bovine albumin (bovine) (P02769 25-607 limits assumed): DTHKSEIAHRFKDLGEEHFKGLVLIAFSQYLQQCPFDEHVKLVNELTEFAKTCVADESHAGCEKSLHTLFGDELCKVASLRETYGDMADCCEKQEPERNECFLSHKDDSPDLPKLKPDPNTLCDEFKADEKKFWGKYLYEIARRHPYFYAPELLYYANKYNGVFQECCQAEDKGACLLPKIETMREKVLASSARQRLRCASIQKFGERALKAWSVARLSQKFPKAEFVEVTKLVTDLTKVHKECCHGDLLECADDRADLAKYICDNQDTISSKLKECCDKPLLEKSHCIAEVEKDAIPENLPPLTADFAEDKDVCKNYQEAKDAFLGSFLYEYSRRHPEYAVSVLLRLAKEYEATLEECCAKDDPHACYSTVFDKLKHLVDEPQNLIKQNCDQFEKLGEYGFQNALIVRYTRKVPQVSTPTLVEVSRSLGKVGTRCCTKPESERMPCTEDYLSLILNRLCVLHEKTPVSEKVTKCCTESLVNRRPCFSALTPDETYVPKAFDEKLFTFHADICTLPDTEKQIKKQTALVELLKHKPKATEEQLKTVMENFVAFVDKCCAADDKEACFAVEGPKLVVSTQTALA
Chain of dog albumin (dog) (P49822 25-608 limits assumed): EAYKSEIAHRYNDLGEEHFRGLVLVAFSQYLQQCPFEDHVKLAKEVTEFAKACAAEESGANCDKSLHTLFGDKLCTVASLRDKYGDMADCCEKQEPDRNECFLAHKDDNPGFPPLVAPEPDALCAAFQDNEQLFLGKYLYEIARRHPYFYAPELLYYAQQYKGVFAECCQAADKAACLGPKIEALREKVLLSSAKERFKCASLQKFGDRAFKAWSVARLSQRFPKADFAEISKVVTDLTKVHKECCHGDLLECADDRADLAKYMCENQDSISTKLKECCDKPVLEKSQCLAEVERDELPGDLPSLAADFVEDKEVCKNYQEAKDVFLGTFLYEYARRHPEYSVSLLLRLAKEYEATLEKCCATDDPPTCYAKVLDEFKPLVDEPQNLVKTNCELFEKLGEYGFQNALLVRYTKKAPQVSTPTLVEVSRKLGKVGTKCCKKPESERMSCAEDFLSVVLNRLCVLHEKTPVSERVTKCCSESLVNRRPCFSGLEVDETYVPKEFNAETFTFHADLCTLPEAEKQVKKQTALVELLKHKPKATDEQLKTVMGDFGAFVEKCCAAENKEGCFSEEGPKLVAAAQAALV

For dalbavancin (peptide), the calculated percent binding in assay [1] is 73%; in [3], 11.4%; in assay [4], 98.8%; in assay [6], 16.9%; in [8], 98.7%; in assay [9], 5.9%. Also, the calculated percent binding in assay [11] is 98.5%; in assay [12] it was 98%; in [13], 26.2%; in assay [14], 98.6%; in assay [19], 68.2%; in assay [20], 98.8%. Also, the N was 0.68 in assay [2]; 0.59 and 0.56 in assay [5]; 0.83 in [7]; 0.5 in [10]; 0.35 and 0.37 in assay [21]. Besides, the N (binding stoichiometry, protein per dalbavancin) in [15], in assay [16], in assay [17] and in [18] was < 1 in each case.
Regarding teicoplanin (peptide), the calculated percent binding in assay [1] was 9.6%; in [4], 98.3%; in assay [8], 98%; in assay [13], 6%; in assay [19], 9.1%; in [20], 98.3%.

Values taken from US20090305953A1.
